Results from article PMC4678481, “Structural insights into the mechanism defining substrate affinity in Arabidopsis thaliana dUTPase: the role of tryptophan 93 in ligand orientation” (BMC Research Notes, 2015).

Substrate: O=c1ccn([C@H]2C[C@H](O)[C@@H](COP(=O)(O)OP(=O)(O)OP(=O)(O)O)O2)c(=O)[nH]1
Test: purified protein
Format: biochemical, Arabidopsis thaliana
Conditions: pH 7.6, 25 °C, 5 mM MgCl2, 100 mM KCl, 0.25 mM bicine, 50 nM enzyme

B1: Arabidopsis dUTPase (Arabidopsis thaliana) (protein)
chain: MACVNEPSPKLQKLDRNGIHGDSSPSPFFKVKKLSEKAVIPTRGSPLSAGYDLSSAVDSKVPARGKALIPTDLSIAVPEGTYARIAPRSGLAWKHSIDVGAGVIDADYRGPVGVILFNHSDADFEVKFGDRIAQLIIEKIVTPDVVEVDDLDETVRGDGGFGSTGV
notes: full length, 166 residues; His tag removed by thrombin, extra Gly-Ser-His at N-terminus; expressed in E. coli JM103 (DE3); homotrimer
Km: 0.4 ± 0.1 µM
